Measurements from patent US11306156.
Blank lines part the entries; values can stand above or below the substance they belong to.

What was measured:
[1] = target: D3H44 light chain Q38E_Q124E_Q160E_T180E; test: SMCA: H1, H2, L1, L2 co-expressed in CHO-3E7, protein A purified, LC-MS; competing light chain m12
[2] = target: D3H44 light chain Q38E_Q124E_Q160E_T180E; test: SMCA: H1, H2, L1, L2 co-expressed in CHO-3E7, protein A, LC-MS; competitor light chain m47
[3] = target: D3H44 light chain Q38E_Q124E_Q160E_T180E; test: SMCA: H1, H2, L1, L2 co-expressed in CHO-3E7, protein A purified, LC-MS; competing light chain m12; *** estimated change against a similar wild-type construct
[4] = target: D3H44 light chain Q38R_Q124R_Q160K_T178R; test: SMCA: H1, H2, L1, L2 co-expressed in CHO-3E7, protein A purified, LC-MS; competing light chain m16
[5] = target: D3H44 light chain Q38R_Q124R_Q160K_T178R; test: SMCA: H1, H2, L1, L2 co-expressed in CHO-3E7, protein A purified, LC-MS; competing light chain m18
[6] = target: D3H44 light chain Q38R_Q124R_Q160K_T178R; test: SMCA: H1, H2, L1, L2 co-expressed in CHO-3E7, protein A purified, LC-MS; competing light chain m16; against wild-type bispecific
[7] = target: D3H44 light chain Q38R_Q124R_Q160K_T178R; test: SMCA: H1, H2, L1, L2 co-expressed in CHO-3E7, protein A purified, LC-MS; competing light chain m18; against wild-type bispecific
[8] = target: D3H44 light chain Q38R_Q124R_Q160K_T178R; test: SMCA: 2 heavy + 2 light chains co-expressed, protein A, LC-MS; competing light chain m20
[9] = target: D3H44 light chain F116C_Q124R_T178R; test: SMCA, LC-MS of 4 co-expressed chains; competing light chain m32
[10] = target: D3H44 light chain F116C_Q124R_T178R; test: SMCA: 2 heavy + 2 light chains co-expressed, protein A, LC-MS; competing light chain m12
[11] = target: D3H44 light chain F116C_Q124R_T178R; test: SMCA, LC-MS; change vs wild-type bispecific; competing light chain m32
[12] = target: Cetuximab light chain Q124E_Q160E_T180E; test: SMCA, LC-MS; change vs wild-type bispecific; competing light chain m15
[13] = target: Cetuximab light chain Q124E_L135W_Q160E_T180E; test: SMCA, LC-MS; change vs wild-type bispecific; competing light chain m12
[14] = target: D3H44 light chain F116A_Q124R_L135V_T178R; test: SMCA, LC-MS; change vs wild-type bispecific; competing light chain m45
[15] = target: D3H44 light chain F116A_Q124R_L135V_T178R; test: SMCA, LC-MS of 4 co-expressed chains; competing light chain m29
[16] = target: D3H44 light chain F116A_Q124R_L135V_T178R; test: SMCA, LC-MS; change vs wild-type bispecific; competing light chain m29
[17] = target: D3H44 light chain F116A_Q124R_L135V_T178R; test: SMCA: 2 heavy + 2 light chains co-expressed, protein A, LC-MS; competing light chain m41
[18] = target: D3H44 light chain Q124E_Q160E_T178E; test: SMCA, LC-MS; estimated change vs similar wild type (***); competing light chain m26
[19] = target: D3H44 light chain Q124E_Q160E_T178E; test: SMCA: LC-MS of protein A purified product after co-expression of H1, H2, L1, L2 in CHO-3E7; competing light chain m52
[20] = target: D3H44 light chain Q124E_S131T_T178Y_T180E; test: as above
[21] = target: D3H44 light chain Q124E_S176L_T180E; test: SMCA: 2 heavy + 2 light chains co-expressed, protein A, LC-MS; competing light chain m16
D3H44 light chain S131E = test: SMCA: LC-MS of protein A purified product after co-expression of H1, H2, L1, L2 in CHO-3E7; competing light chain m53
[22] = target: D3H44 light chain Q124E_Q160E_T178E; test: SMCA, LC-MS of 4 co-expressed chains; competing light chain m26
[23] = target: D3H44 light chain Q124E_S176L_T180E; test: as above
[24] = target: D3H44 light chain Q124E_Q160E_T178E; test: SMCA, LC-MS; change vs wild-type bispecific; competing light chain m42
[25] = target: D3H44 light chain Q124E_Q160E_T178E; test: SMCA, LC-MS of 4 co-expressed chains; competing light chain m42
[26] = target: D3H44 light chain Q124E_S176L_T180E; test: SMCA, LC-MS; change vs wild-type bispecific; competing light chain m26
[27] = target: Cetuximab light chain F116C_Q124R_T178R; test: SMCA: H1, H2, L1, L2 co-expressed in CHO-3E7, protein A purified, LC-MS; competing light chain m6; against wild-type bispecific
[28] = target: Cetuximab light chain F116C_Q124R_T178R; test: SMCA, LC-MS; change vs wild-type bispecific; competing light chain m14

- % H1L1 Pairing (over all H1 species) [9]: 100%
- % H1L1 Pairing (over all H1 species) [10]: 100%
- Change in % H1L1 Pairing (over all H1 species) with respect to wild type [11]: 38.1%
Substance: D3H44 heavy chain A139C_L143E_K145T_Q179E (from UniProt P0DOX5 2-448)

- Change in % H1L1 Pairing (over all H1 species) with respect to wild type [14]: 58.1%
- % H1L1 Pairing (over all H1 species) [15]: 100%
- Change in % H1L1 Pairing (over all H1 species) with respect to wild type [16]: 41.9%
- % H1L1 Pairing (over all H1 species) [17]: 100%
Substance: D3H44 heavy chain A139W_L143E_K145T_Q179E (from UniProt P0DOX5 2-448)

- Change in % H1L1 Pairing (over all H1 species) with respect to wild type [18]: 43.3%
- % H1L1 Pairing (over all H1 species) [19]: 100%
- % H1L1 Pairing (over all H1 species) [20]: 100%
- % H1L1 Pairing (over all H1 species) [21]: 100%
- % H1L1 Pairing (over all H1 species) (D3H44 light chain S131E): 100%
- % H1L1 Pairing (over all H1 species) [22]: 100%
- % H1L1 Pairing (over all H1 species) [23]: 100%
- Change in % H1L1 Pairing (over all H1 species) with respect to wild type [24]: 60.9%
- % H1L1 Pairing (over all H1 species) [25]: 98.2%
- Change in % H1L1 Pairing (over all H1 species) with respect to wild type [26]: 52.5%
Substance: D3H44 heavy chain S186K (from UniProt P0DOX5 2-448)

Continued, substance first:

Substance: D3H44 heavy chain Q39R_H172R_Q179K (from UniProt P0DOX5 2-448)
- % H1L1 Pairing (over all H1 species) [1]: 100%
- % H1L1 Pairing (over all H1 species) [2]: 100%
- Change in % H1L1 Pairing (over all H1 species) with respect to wild type [3]: 43.3%

Substance: D3H44 heavy chain Q39E_L143E_K145T_Q179E (from UniProt P0DOX5 2-448)
- % H1L1 Pairing (over all H1 species) [4]: 100%
- % H1L1 Pairing (over all H1 species) [5]: 86.6%
- Change in % H1L1 Pairing (over all H1 species) with respect to wild type [6]: 38.1%
- Change in % H1L1 Pairing (over all H1 species) with respect to wild type [7]: 46%
- % H1L1 Pairing (over all H1 species) [8]: 100%

Substance: Cetuximab heavy chain Q179K
- Change in % H2L2 Pairing (over all H2 species) with respect to wild type [12]: 0%
- Change in % H2L2 Pairing (over all H2 species) with respect to wild type [13]: 1.7%

Substance: Cetuximab heavy chain A139C_L143E_K145T_Q179E
- Change in % H2L2 Pairing (over all H2 species) with respect to wild type [27]: 3%
- Change in % H2L2 Pairing (over all H2 species) with respect to wild type [28]: 0%
